The source of these data is patent US9371393B2, “Class I anti-CEA antibodies and uses thereof” (Immunomedics, Inc., priority 2009, dated 2016).

One test deals with T1, CEA (Homo sapiens, UniProt P06731).
T1 sequence (P06731 35-676): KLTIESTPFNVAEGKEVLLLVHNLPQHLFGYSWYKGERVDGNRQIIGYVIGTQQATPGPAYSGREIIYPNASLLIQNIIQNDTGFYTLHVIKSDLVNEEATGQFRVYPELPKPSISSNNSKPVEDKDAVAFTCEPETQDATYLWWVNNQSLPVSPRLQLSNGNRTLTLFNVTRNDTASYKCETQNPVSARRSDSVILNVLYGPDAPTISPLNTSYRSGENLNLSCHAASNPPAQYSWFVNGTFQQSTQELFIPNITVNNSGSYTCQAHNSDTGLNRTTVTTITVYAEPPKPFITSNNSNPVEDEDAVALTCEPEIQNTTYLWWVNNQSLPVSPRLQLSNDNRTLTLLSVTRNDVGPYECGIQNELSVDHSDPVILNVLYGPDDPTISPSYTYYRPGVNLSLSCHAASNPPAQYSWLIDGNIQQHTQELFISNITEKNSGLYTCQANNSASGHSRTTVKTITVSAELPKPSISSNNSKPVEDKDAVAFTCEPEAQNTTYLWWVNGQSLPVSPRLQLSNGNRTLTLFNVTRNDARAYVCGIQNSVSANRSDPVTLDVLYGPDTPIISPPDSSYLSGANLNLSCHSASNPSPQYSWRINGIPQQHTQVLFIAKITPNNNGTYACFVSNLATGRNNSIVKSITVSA
Put plainly: Competitive CEA binding against HRP-labeled murine MN-15. The conditions noted are these: competition with HRP-labeled murine MN-15. The source says:
To make a chimeric MN-15 antibody, the murine MN-15 variable region sequences were attached to human IgG1 constant region sequences, as described in Leung et al., Hybridoma 13:469 (1994). The sequences of the murine MN-15 VK (SEQ ID NO:9) and MN-15 VH (SEQ ID NO:10) used to construct the chimeric MN-15 (cMN-15) are shown in FIG. 2 and FIG. 3.

In a further test the test system is MDA-231 cells. Put plainly: Collagen-based invasion assay, MDA-231. The class given is cell-based, human. Particulars: MDA-231, expresses neither antigen. How it is done: Collagen-based invasion assay—The assay was done using CHEMICON® Kit (#ECM551, MILLIPORE®, Billerica, Mass.). Tumor cells at 80% confluence and were serum-starved for 18 to 24 hours before the assay was used. Cells were harvested with 5 mol of 2 mmol/L EDTA/PBS per 100-mm dish and incubated at 37° C. for 5 to 15 minutes. Cells were collected into 10 to 20 mol of quenching medium (serum-free DMEM containing 5% BSA) to inactivate trypsin/EDTA from the harvesting buffer. Cells were pelleted, resuspended in quenching medium (1×10^6 cells/mol), and appropriate antibody Fabs were added to individual cell aliquots. Cell invasion potential was determined as follows. Baseline invasion and invasion in the presence of a chemoattractant (10% FBS) were measured after a 72-hour incubation period at 37° C. in a 5% CO2 incubator. The bottom side of the collagen-coated polycarbonate membrane insert of the invasion chamber was placed in 400 μL of cell stain for 20 minutes at room temperature and washed. The dye was extracted and transferred into a 96-well microtiter plate for colorimetric measurements (A560 nm).

For a further test, the system named is LS174T cells. Description: Spontaneous migration (wound-healing) assay, LS174T. The class given is cell-based, human. Further details: dose or concentration left out as unconfirmed. Particulars: antibody, 18 to 24 hours, untreated 38.8±10.9. How it is done: (§1) Spontaneous migration assay—Glass coverslips were placed in 100×15 mm Petri dishes and UV sterilized overnight. Suspensions of cancer cells (2-4×10^5 cells/mol) were prepared from 80% to 90% confluent monolayers. Cells were plated on each coverslip and incubated for 2 to 5 days to reach 70% to 80% confluence. Two diagonal cell-free paths (“wounds”) were created by dragging a sterile yellow pipette tip across the surface. Monolayers were rinsed several times to remove floating cells and 4 mol of fresh medium were added back in the absence or presence of antibody IgG or Fab′ (10 μg/mol) and incubated at 37° C. After 18 to 24 hours, the medium was removed and coverslips stained with 1 mol Wright-Giemsa for 1 minute. The stain was washed off with distilled water, air-dried, and mounted onto slides with Cytoseal 60. Repopulation of the wound space was evaluated by counting the number of cells that migrated into the wound area in 10 representative fields. Regions of migration were photographed for documentation.

Another test relates to HT-29 cells. Put plainly: Spontaneous migration (wound-healing) assay, HT-29. It counts as cell-based, human. On the set-up: dose or concentration left out as unconfirmed. Particulars: antibody, 18 to 24 hours, untreated 14.9±9.1, n=10. Here is the method: as §1
The subject of test [1] is GW-39 human colonic carcinoma. Description: GW-39 intrapulmonary micrometastasis model (GW-39iv), survival. It counts as in vivo, nude mice. Particulars: cells pretreated with Fab′ 10 μg/mol, 100 μg i.v. 1 day after implantation; untreated 42 days. Here is the method:
FIG. 7 illustrates an exemplary in vivo micrometastasis study. Top, immunohistochemistry of GW-39 tumor sections stained with a nonspecific antibody (left), MN-14 anti-CEACAM5 (middle), and MN-15 anti-CEACAM6 (right) and photographed at 100×. Bottom, survival of nude mice implanted with 30 μL of a 10% suspension of GW-39 human colonic cancer cells. Mice were implanted with cells that were […] for 30 minutes with MN-3-, MN-15-, or hMN-14-Fab′ (10 μg/mol). Mice also received a single 100 μg dose of the same Fab′ 1 day after cell implantation.
In vivo therapy studies—Female athymic nude mice (6 to 8 weeks old) were purchased from TACONIC® (Germantown, N.Y.). Therapy studies were done using our CEACAM5+/CEACAM6+GW-39 intrapulmonary micrometastasis model, GW-39iv (Sharkey et al., J Natl Cancer Inst 1991, 83:627-32; Blumenthal et al., Cancer Res 1992, 52:6036-44). The GW-39 human colonic carcinoma has been maintained as a serially transplanted signet-ring cell cancer line since 1966 (Goldenberg et al., Transplantation 1966, 4:760-4). […] Body weight was monitored weekly and animal survival recorded. Results were analyzed by the Kaplan-Meier estimated survival curves, and significance was determined with the log-rank comparison of survival curves. Median survival time for each treatment group also was determined. […]

B1: MN-15: murine Class I anti-CEA MAb, IgG1 kappa, binds A1B1 domain of CEACAM5 and CEACAM6 (antibody, V domains shown)
VL: DIQLTQSPAIMSASPGEKVTMTCSASSRVSYIHWYQQKSGTSPKRWIYGTSTLASGVPARFSGSGSGTSYSLTISSMEAEDAATYYCQQWSYNPPTFGAGTKLELKR
VH: EVRLVESGGGLVQGPGSLRLSCAASGFALTDYYMSWVRQSPGKTLEWLGFIANKANGHTTDYSPSVKGRFTISRDNSQTILYLQMNTLRTEDSATYYCARDMGIRWNFDVWGQGTTVTVSS
For B1, the dissociation constant result in the test with CEA is recorded as “nanomolar range”. In addition, the effect on invasion entry with MDA-231 cells is reported as “not reduced”. Besides, the “migrating cells per field” value in the test on LS174T cells is listed as 20.3±0.1 cells. Also, the “number of migrating cells per field” value in the test with HT-29 cells was 5.5±1.8 cells.

B2: MN-15 Fab′: monovalent Fab′ fragment of murine MN-15 (antibody, V domains shown)
VL: B1 VL
VH: B1 VH
With B2, the median survival time in test [1] is recorded as over 77 days. Further, the effect on invasion entry in the test with MDA-231 cells is “not reduced”. Also, the “migrating cells per field” value in the test with LS174T cells was found to be 21.6±1.2 cells. In the test on HT-29 cells, the “number of migrating cells per field” value was found to be 5.4±0.8 cells.
